Measurements: US9605038B2, “Fusion peptide comprising dhFas-1 domain and MMP substrate and use thereof for preventing and treating rheumatoid arthritis” (Kyungpook National University Industry-Academic Cooperation …, priority 2010, dated 2017)
Entries after “also recorded” stand apart in the source; their conditions may differ.

Tests used:
[1] = tested on: mouse fibroblast (NIH3T3); test: βig-h3-mediated cell adhesion test, NIH3T3; format: cell-based; settings: for adhesion inhibiting effect: NIH3T3, concentration of 0.5uM, FIG. 15C; for βig-h3-mediated cell adhesion: NIH3T3, βig-h3 5 ug/ml coat
Experimental: (§1) Human βig-h3 was introduced into a 96-well plate at a concentration of 5 ug/ml, and coated for 14 hours at 4° C. In DMEM+0.5% BSA (Bovine Serum Albumin) culture medium, human fibroblast (NIH3T3) was introduced, and hsdhFas-1 peptide at concentrations was injected thereto, followed by mixing. The resultant mixture was cultured at 37° C. for 30 minutes, and plated on a coated well. It was cultured for 2 hours, and washed with PBS (phosphate buffered saline) so as to remove unattached cells, and then added with a substrate (4-Nitrophenyl N-acetyl-β-D-glucosaminide, Sigma, U.S.) to be activated by β-N-acetylglucosaminidase within the cell, followed by culturing at 37° C. for 1 hour. Then, a glycine EDTA solution (0.5M EDTA, 50 mM glycine, pH 10.4) was added thereto, and the coloring extent according to the number of attached cells was measured by absorbance.
Also, a structurally modified peptide of a fas-1 domain of mouse βig-h3 was synthesized as a recombinant peptide (hereinafter, referred to as ‘mdhFas-1peptide’, see FIG. 2), and a mouse cell line, that is, NIH3T3 cell line, was used to test the inhibiting effect by mdhFas-1 peptide on adhesion and migration of a Synovial membrane cell in the same manner as that in the test using human βig-h3.
as §1, with “βig-h3” for “Human βig-h3”, “mouse” for “human”, “MFK23, MFK24, MFK25 or MFK27” for “hsdhFas-1 peptide”

[2] = Toxicity test in CIA mouse (weight, serologic test, blood test); settings: CIA mouse, 22nd day vs 48th day
Experimental: On the 48th day, a serologic test and a blood test were carried out.

[3] = tested on: collagen-induced arthritis (CIA) mouse model; test: Arthritis therapeutic effect in CIA mouse (clinical arthritis index); format: in vivo
Experimental: A CIA mouse model having the similar characteristic to that of human rheumatoid arthritis was prepared according to the description in a known literature (Protocol for the successful induction of collagen-induced arthritis (CIA) and collagen antibody-induced arthritis (CAIA) in mice. Chondrex, Redmond, Wash.): Bovine type 2 collagen 100 ug was mixed with Freund's complete adjuvant, and hypodermically inoculated into the tail of the mouse. After 3 weeks, bovine type 2 collagen 100 ug was mixed with Freund's incomplete adjuvant, and inoculated again into the tail of the mouse. Then, the mouse was used in the experiment.
In order to find out the therapeutic effect of arthritis in a CIA model, for four weeks from the onset (the 23rd day) of arthritis following the second injection of the bovine type 2 collagen, MFK23 or MFK24 was daily injected into the abdominal cavity in doses of 0.1 mg/kg, 1 mg/kg, 10 mg/kg and 30 mg/kg. As a control group, the same amount of PBS was injected into the abdominal cavity. From the 23rd day to the 50th day, by using a Clinical arthritis index, the severity of arthritis was daily determined. The determination was based on the following data.
0; no symptom, 1; edema in one articulation or light edema, 2; severe edema in 2 or more articulations, 3; severe edema in most articulations, 4; severe edema in the whole of legs.

NIH3T3 = test: βig-h3-mediated cell migration test (transwell), NIH3T3; format: cell-based, mouse; settings: 7 hours
Experimental: In the lower compartment of a transwell filter having an 8 um hole size allowing cells to be migrated, βig-h3 was cultured at 4° C. for 12 to 14 hours and coated. In DMEM+0.5% BSA culture medium, NIH3T3 was introduced, and administered with MFK23, MFK24 or MFK25 at concentrations, followed by mixing. The resultant mixture was cultured at 37° C. for 30 minutes, inoculated into the upper chamber of the coated well, and cultured for 7 hours at 37° C. Then, the cells migrated to the lower compartment of the filter were fixed by paraformaldehyde, and strained by a crystal violet. The cells […] remaining in the upper chamber were wiped out and the number of cells migrated to the lower compartment was microscopically counted.

cathepsin K = target: T1, cathepsin K (Homo sapiens, UniProt P43235); test: Enzymatic digestion test, cathepsin K; format: biochemical; settings: 3 ug peptide, cathepsin K 10, 50, 100 ng, 37° C. 4 hours
T1 sequence (P43235 115-329): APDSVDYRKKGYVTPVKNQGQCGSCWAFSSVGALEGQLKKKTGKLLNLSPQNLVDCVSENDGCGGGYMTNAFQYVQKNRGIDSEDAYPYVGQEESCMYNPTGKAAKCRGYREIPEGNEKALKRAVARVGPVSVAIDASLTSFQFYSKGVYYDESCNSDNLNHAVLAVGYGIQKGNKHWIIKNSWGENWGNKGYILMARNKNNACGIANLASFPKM
Experimental: (§2) 3 ug of synthesized mdhFas-1-MMPsubstrate structure modified protein, together with MMP1 (5 ng, 10 ng and 50 ng), MMP2 (100 ng, 200 ng and 800 ng), MMP3 (10 ng, 50 ng and 100 ng), cathepsin D (5 ng, 10 ng and 50 ng), cathepsin L (100 ng, 200 ng and 800 ng), and cathepsin K (10 ng, 50 ng and 100 ng), was mixed with enzyme buffer (150 mM NaCl, 5 mM. CaCl2, 20 mM Tris-HCl pH7.5), and reacted at 37° C. for 4 hours. The resultant product was subjected to electrophoresis through 15% polyacrylamide gel, transferred to a Nitrocellulose Membrane (Schleicher & Schuell), blocked at room temperature for 1 hour with TBST solution containing 3% BSA (20 mmole/L Tris-HCl, 137 mmole//l NaCl, 0.1% Tween-20), washed TBST solution three times (each for 10 minutes), and reacted with primary antibody (anti-Histidine or anti-Bigh3) for 1 hour. The resultant product was washed with TBST solution three times (each for 10 minutes), reacted with a secondary antibody conjugated to horseradish peroxidase (HRP) for 1 hour, washed TBST solution three times (each for 10 minutes), and visualized by ECL (Amersham Biosciences, UK) so as to detect the change in the amount of mdhFas-1-MMPsubstrate-RGD structural peptide.

cathepsin D = cathepsin D (Homo sapiens, UniProt P07339); test: Enzymatic digestion test, cathepsin D; format: biochemical; settings: 3 ug peptide, cathepsin D 5, 10, 50 ng, 37° C. 4 hours
Chain of cathepsin D (P07339 65-412, species assumed): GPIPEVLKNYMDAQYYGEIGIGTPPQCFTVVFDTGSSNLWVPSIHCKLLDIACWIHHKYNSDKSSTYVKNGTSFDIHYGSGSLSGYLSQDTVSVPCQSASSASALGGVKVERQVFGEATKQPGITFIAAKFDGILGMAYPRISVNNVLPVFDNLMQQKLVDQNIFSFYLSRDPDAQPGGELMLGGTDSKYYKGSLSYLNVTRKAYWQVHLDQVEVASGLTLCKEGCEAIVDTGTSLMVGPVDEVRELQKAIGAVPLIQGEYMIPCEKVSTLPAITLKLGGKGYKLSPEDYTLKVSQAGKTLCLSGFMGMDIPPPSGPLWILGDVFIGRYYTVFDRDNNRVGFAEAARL
Experimental: as §2

MMP1 = target: T2, MMP1 (Homo sapiens, UniProt P03956); test: Enzymatic digestion test, MMP1; format: biochemical; settings: 3 ug peptide, MMP1 5, 10, 50 ng, 37° C. 4 hours
T2 sequence (P03956 100-469): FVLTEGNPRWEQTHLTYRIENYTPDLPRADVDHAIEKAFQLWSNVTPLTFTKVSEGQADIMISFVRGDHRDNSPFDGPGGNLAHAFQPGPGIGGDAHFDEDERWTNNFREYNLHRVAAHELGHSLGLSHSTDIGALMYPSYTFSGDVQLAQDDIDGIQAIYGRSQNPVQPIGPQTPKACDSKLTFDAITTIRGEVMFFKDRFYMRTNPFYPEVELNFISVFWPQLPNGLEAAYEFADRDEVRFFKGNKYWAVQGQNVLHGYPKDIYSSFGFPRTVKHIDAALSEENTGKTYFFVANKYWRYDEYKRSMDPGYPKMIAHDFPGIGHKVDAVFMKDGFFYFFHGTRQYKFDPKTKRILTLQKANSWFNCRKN
Experimental: as §2

MMP3 = MMP3 (Homo sapiens, UniProt P08254); test: Enzymatic digestion test, MMP3; format: biochemical; settings: 3 ug peptide, MMP3 10, 50, 100 ng, 37° C. 4 hours
Chain of MMP3 (P08254 100-477, species assumed): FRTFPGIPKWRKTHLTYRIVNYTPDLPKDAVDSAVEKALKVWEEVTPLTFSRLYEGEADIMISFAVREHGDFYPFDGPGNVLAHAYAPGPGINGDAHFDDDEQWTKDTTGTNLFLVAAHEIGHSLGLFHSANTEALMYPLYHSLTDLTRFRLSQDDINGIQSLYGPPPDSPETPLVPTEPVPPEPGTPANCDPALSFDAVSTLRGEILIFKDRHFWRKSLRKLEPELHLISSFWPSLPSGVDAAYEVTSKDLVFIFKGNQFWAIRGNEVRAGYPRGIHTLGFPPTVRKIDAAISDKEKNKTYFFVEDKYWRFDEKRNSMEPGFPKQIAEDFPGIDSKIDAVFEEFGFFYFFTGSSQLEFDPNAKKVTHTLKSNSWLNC
Experimental: as §2

cathepsin L = cathepsin L (Homo sapiens, UniProt P07711); test: Enzymatic digestion test, cathepsin L; format: biochemical; settings: 3 ug peptide, cathepsin L 100, 200, 800 ng, 37° C. 4 hours
Chain of cathepsin L (P07711 114-333, species assumed): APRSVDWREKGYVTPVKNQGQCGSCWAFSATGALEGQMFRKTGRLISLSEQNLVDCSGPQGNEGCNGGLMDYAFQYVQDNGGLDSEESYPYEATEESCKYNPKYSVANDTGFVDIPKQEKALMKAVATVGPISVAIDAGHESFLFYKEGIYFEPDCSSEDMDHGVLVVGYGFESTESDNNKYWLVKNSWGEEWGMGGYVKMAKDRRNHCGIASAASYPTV
Experimental: as §2

MMP2 = target: T3, MMP2 (Homo sapiens, UniProt P08253); test: Enzymatic digestion test, MMP2; format: biochemical; settings: 3 ug peptide, MMP2 100, 200, 800 ng, 37° C. 4 hours
T3 sequence (P08253 110-660): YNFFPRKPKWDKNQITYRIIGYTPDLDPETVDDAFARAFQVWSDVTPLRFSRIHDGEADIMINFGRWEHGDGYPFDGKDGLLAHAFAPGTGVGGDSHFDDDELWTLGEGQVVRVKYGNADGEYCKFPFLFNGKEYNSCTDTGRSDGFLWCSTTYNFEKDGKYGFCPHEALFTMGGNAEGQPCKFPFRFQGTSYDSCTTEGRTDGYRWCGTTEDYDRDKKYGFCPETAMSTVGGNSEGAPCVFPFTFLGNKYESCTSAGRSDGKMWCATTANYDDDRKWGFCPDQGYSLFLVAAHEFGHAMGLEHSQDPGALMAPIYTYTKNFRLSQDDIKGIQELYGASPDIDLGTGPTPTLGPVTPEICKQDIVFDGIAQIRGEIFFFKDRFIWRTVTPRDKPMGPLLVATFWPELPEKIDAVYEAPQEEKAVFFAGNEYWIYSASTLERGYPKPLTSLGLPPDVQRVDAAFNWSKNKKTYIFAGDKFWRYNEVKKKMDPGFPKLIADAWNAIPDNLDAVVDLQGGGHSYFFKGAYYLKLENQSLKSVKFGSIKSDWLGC
Experimental: as §2

Molecule: RGDSP (amino acid chain comprising ′RGD′) [reference compound]
- adhesion inhibiting effect [1]: 0%

B1: mdhFas-1: peptide prepared by removing H1 and H2 regions from the fourth fas-1 domain of mouse βig-h3 (protein)
chain: QAMPPEELNKLLANAKELTNILKYHIGDEILVSGGIGALVRLKSLQGDKLEVSSKNNVVSVNKEPVAETDIM
modifications: mdhFas-1
notes: peptide prepared by removing H1 and H2 regions from the fourth fas-1 domain of mouse βig-h3
- body weight change compared to control group [2]: abnormal findings in the weight change were not observed
- arthritis inhibition (clinical arthritis index) ([3]; 10 mg/kg daily): about 32%
- arthritis inhibition (clinical arthritis index) ([3]; 30 mg/kg daily): about 69%
- arthritis inhibiting effect (clinical arthritis index), in words ([3]; daily into the abdominal cavity): concentration-dependently inhibited
- βig-h3-mediated cell migration (NIH3T3): concentration-dependently inhibited
- adhesion inhibiting effect [1]: 50%
- βig-h3-mediated cell adhesion [1]: concentration-dependently inhibited

B2: MFK25: fusion peptide having sequential links of mdhFas-1, MMP consensus substrate GPLGIAG (SEQ ID NO: 7), and QERGDSLA (SEQ ID NO: 10) (protein)
chain: QAMPPEELNKLLANAKELTNILKYHIGDEILVSGGIGALVRLKSLQGDKLEVSSKNNVVSVNKEPVAETDIMEFGPLGIAGVDGQERGDSLAGLE
modifications: MFK25
- cleavage through treatment with cathepsin K (cathepsin K): not cleaved
- cleavage through treatment with cathepsin D (cathepsin D): not cleaved
- cleavage through treatment with MMP-1 (MMP1): concentration-dependently cleaved; also recorded: well cleaved
- cleavage through treatment with MMP-3 (MMP3): concentration-dependently cleaved; also recorded: well cleaved
- βig-h3-mediated cell migration (NIH3T3): inhibited the cell migration; also recorded: concentration-dependently inhibited
- βig-h3-mediated cell adhesion [1]: even at a very low concentration can inhibit the cell adhesion; also recorded: concentration-dependently inhibited
- cleavage through treatment with cathepsin L (cathepsin L): not cleaved
- cleavage through treatment with MMP-2 (MMP2): concentration-dependently cleaved

B3: MFK27: fusion peptide having sequential links of mdhFas-1, MMP3 substrate GPLGLWARG (SEQ ID NO: 8), and QERGDSLA (SEQ ID NO: 10) (protein)
chain: MALLMRLLTLALALSVGPAGTLARSQAMPPEELNKLLANAKELTNILKYHIGDEILVSGGIGALVRLKSLQGDKLEVSSKNNVVSVNKEPVAETDIMEFGPLGLWARGVDQERGDSLAGLE
modifications: MFK27
- βig-h3-mediated cell adhesion [1]: even at a very low concentration can inhibit the cell adhesion; also recorded: concentration-dependently inhibited
